Experimental data as given in patent US20250177443A1 (ACADEMISCH ZIEKENHUIS LEIDEN H O D N LUMC, published 2025).

Columns and labels:
HLA-A*02:01 = molecular target: T1, HLA-A*02:01 (human); test: stable pHLA monomer refolding
T1 construct: also called HLA-A2

[1] = molecular target: T2, Jchain (joining chain) peptide on HLA-A*24:02 (human); test: NSG mice with established U266 + HLA-A24 + luciferase; 3-6x10^6 TCR-transduced CD8 T cells i.v.; bioluminescence; full-length, on cells
T2 peptide: CYTAVVPLV
Text: (§1) Subsequently, mice were infused with 3-6×10\hat{ }6 Jchain HLA-A1, -A24, -A3 or -A11 TCR or irrelevant CMV TCR Td CD8 T cells after which tumor outgrowth was followed measuring bioluminescence at regular intervals (FIG. 7A,B).

[2] = molecular target: T3, Jchain (joining chain) peptide on HLA-A*03:01 (human); test: killing
T3 peptide: ISDPTSPLRTR

[3] = molecular target: T4, Jchain (joining chain) peptide on HLA-A*11:01 (human); test: NSG mice with established U266 + HLA-A11 + luciferase; 3-6x10^6 TCR-transduced CD8 T cells i.v.; bioluminescence; full-length, on cells
T4 peptide: ISDPTSPLRTR
Text: as §1

[4] = molecular target: T4, Jchain (joining chain) peptide on …; test: killing
[5] = molecular target: T3, Jchain (joining chain) peptide on …; test: NSG mice with established wild-type HLA-A3pos U266 + luciferase; TCR-transduced CD8 T cells i.v.; bioluminescence; complete eradication in hIL-7/hIL-15 NSG mice (FIG. 15); full-length, on cells
HLA-A*03:01 = molecular target: T5, HLA-A*03:01 (human); test: stable pHLA monomer refolding
T5 construct: also called HLA-A3

HLA-A*11:01 = HLA-A*11:01 (human); test: stable pHLA monomer refolding
HLA-A*01:01 = molecular target: T6, HLA-A*01:01 (human); test: stable pHLA monomer refolding
T6 construct: also called HLA-A1

[6] = molecular target: T7, Jchain (joining chain) peptide on HLA-A*01:01 (human); test: multimer staining
T7 peptide: YTAVVPLVY

HLA-B*40:01 = HLA-B*40:01 (human); test: stable pHLA monomer refolding
HLA-A*24:02 = HLA-A*24:02 (human); test: stable pHLA monomer refolding

VLAVFIKAVHV (also called VLA1 peptide) [Jchain derived peptide VLAVFIKAVHV (SEQ ID NO: 103)]
binding result (HLA-A*02:01): binds

YTAVVPLV [Jchain derived peptide YTAVVPLV (SEQ ID NO: 105)]
binding result (HLA-A*02:01): binds

B1: TCR clone 10H11.11 (TCR, V domains shown)
Valpha: EDQVTQSPEALRLQEGESSSLNCSYTVSGLRGLFWYRQDPGKGPEFLFTLYSAGEEKEKERLKATLTKKESFLHITAPKPEDSATYLCAVLSGGSYIPTFGRGTSLIVHP
Vbeta: DTGVSQDPRHKITKRGQNVTFRCDPISEHNRLYWYRQTLGQGPEFLTYFQNEAQLEKSRLLSDRFSAERPKGSFSTLEIQRTEQGDSAMYLCASSPLLRDSEEKLFFGSGTQLSVL
fold lower tumor load than in CMV TCR control mice [1]: 209 fold

B2: TCR clone 16C7.9 (TCR, V domains shown)
Valpha: AQKITQTQPGMFVQEKEAVTLDCTYDTSDPSYGLFWYKQPSSGEMIFLIYQGSYDQQNATEGRYSLNFQKARKSANLVISASQLGDSAMYFCAMREDYTGGFKTIFGAGTRLFVKA
Vbeta: GAGVSQTPSNKVTEKGKYVELRCDPISGHTALYWYRQSLGQGPEFLIYFQGTGAADDSGLPNDRFFAVRPEGSVSTLKIQRTERGDSAVYLCASSLISGGNEQFFGPGTRLTVL
binding result [2]: no recognition
fold lower tumor load than in CMV TCR control mice [3]: 190 fold

B3: TCR clone 5C8.16 (TCR, V domains shown)
Valpha: AQSVTQLDSHVSVSEGTPVLLRCNYSSSYSPSLFWYVQHPNKGLQLLLKYTSAATLVKGINGFEAEFKKSETSFHLTKPSAHMSDAAEYFCVVKWADSWGKLQFGAGTQVVVTP
Vbeta: AAGVIQSPRHLIKEKRETATLKCYPIPRHDTVYWYQQGPGQDPQFLISFYEKMQSDKGSIPDRFSAQQFSDYHSELNMSSLELGDSALYFCASSLGTGNFYEQYFGPGTRLTVT
binding result [4]: no recognition
fold lower tumor load than in CMV TCR control mice [5]: 70 fold

ISDPTSPLRTR (also called ISD peptide) [Jchain derived peptide ISDPTSPLRTR (SEQ ID NO: 101)]
binding result (HLA-A*03:01): binds
binding result (HLA-A*11:01): binds

TAVVPLVY (also called TAV peptide) [Jchain derived peptide TAVVPLVY (SEQ ID NO: 102)]
binding result (HLA-A*01:01): binds

B4: TCR clone 4G8.8 (TCR, V domains shown)
Valpha: AQTVTQSQPEMSVQEAETVTLSCTYDTSENNYYLFWYKQPPSRQMILVIRQEAYKQQNATENRFSVNFQKAAKSFSLKISDSQLGDTAMYFCAFMKHVEYGNKLVFGAGTILRVKS
Vbeta: DAGITQSPRHKVTETGTPVTLRCHQTENHRYMYWYRQDPGHGLRLIHYSYGVKDTDKGEVSDGYSVSRSKTEDFLLTLESATSSQTSVYFCAARDSANEKLFFGSGTQLSVL
binding result [6]: recognises

B5: TCR clone 13F6.6 (TCR, V domains shown)
Valpha: AQSVSQHNHHVILSEAASLELGCNYSYGGTVNLFWYVQYPGQHLQLLLKYFSGDPLVKGIKGFEAEFIKSKFSFNLRKPSVQWSDTAEYFCAASSGGYQKVTFGIGTKLQVIP
Vbeta: DVKVTQSSRYLVKRTGEKVFLECVQDMDHENMFWYRQDPGLGLRLIYFSYDVKMKEKGDIPEGYSVSREKKERFSLILESASTNQTSMYLCASSLRREVGDTQYFGPGTRLTVL
binding result [6]: recognises

GETKMVETAL (also called GET peptide) [Jchain derived peptide GETKMVETAL (SEQ ID NO: 107)]
binding result (HLA-B*40:01): binds

RIIVPLNNR (also called RII peptide) [Jchain derived peptide RIIVPLNNR (SEQ ID NO: 106)]
binding result (HLA-A*11:01): binds

CYTAVVPLV (also called CYT peptide) [Jchain derived peptide CYTAVVPLV (SEQ ID NO: 100)]
binding result (HLA-A*24:02): binds

VLAVFIKAV (also called VLA2 peptide) [Jchain derived peptide VLAVFIKAV (SEQ ID NO: 104)]
binding result (HLA-A*02:01): binds
